Biological target: caveolin, endogenous in mouse hippocampal primary neurons (mouse (endogenous in hippocampal primary neurons)) (UniProt P49817)
Assay: co-IP; competition: synthetic Tat peptides incubated with living hippocampal primary neurons for 45 min before lysis; anti-caveolin immunoprecipitate blotted for mGlu1 receptor, band intensity normalised to control (n=3)

Chain of UniProt P49817 (P49817 whole entry): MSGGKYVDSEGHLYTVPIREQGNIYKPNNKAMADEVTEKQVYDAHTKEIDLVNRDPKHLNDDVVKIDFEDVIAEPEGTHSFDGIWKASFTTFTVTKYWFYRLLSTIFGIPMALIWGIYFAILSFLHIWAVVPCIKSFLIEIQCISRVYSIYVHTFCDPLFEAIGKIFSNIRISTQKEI

Tat-blocking peptide (Tat peptide fused with caveolin binding site of mGlu1α receptor)
mGlu1α receptor co-precipitated with caveolin in the presence of the peptide, % of control: 73.3 % of control

Source: publication PMC3937055
